This data set in a line: soluble on expression in E. coli; label from the status in PepcDB or PDB records.
Regarding “MEVAVEKAVAAAAAASAAASGGPSAAPSGENEAESRQGPDSERGGEAARLNLLDTCAVCHQNIQSRAPKLLPCLHSFCQRCLPAPQRYLMLPAPMLGSAETPPPVPAPGSPVSGSSPFATQVGVIRCPVCSQECAERHIIDNFFVKDTTEVPSSTVEKSNQVCTSCEDNAEANGFCVECVEWLCKTCIRAHQRVKFTKDHTVRQKEEVSPEAVGVTSQRPVFCPFHKKEQLKLYCETCDKLTCRDCQLLEHKEHRYQFIEEAFQNQKVIIDTLITKLMEKTKYIKFTGNQIQNRIIEVNQNQKQVEQDIKVAIFTLMVEINKKGKALLHQLESLAKDHRMKLMQQQQEVAGLSKQLEHVMHFSKWAVSSGSSTALLYSKRLITYRLRHLLRARCDASPVTNNTIQFHCDPSFWAQNIINLGSLVIEDKESQPQMPKQNPVVEQNSQPPSGLSSNQLSKFPTQISLAQLRLQHMQQQVMAQRQQVQRRPAPVGLPNPRMQGPIQQPSISHQQPPPRLINFQNHSPKPNGPVLPPHPQQLRYPPNQNIPRQAIKPNPLQMAFLAQQAIKQWQISSGQGTPSTTNSTSSTPSSPTITSAAGYDGKAFGSPMIDLSSPVGGSYNLPSLPDIDCSSTIMLDNIVRKDTNIDHGQPRPPSNRTVQSPNSSVPSPGLAGPVTMTSVHPPIRSPSASSVGSRGSSGSSSKPAGADSTHKVPVVMLEPIRIKQENSGPPENYDFPVVIVKQESDEESRPQNANYPRSILTSLLLNSSQSSTSEETVLRSDAPDSTGDQPGLHQDNSSNGKSEWLDPSQKSPLHVGETRKEDDPNEDWCAVCQNGGELLCCEKCPKVFHLSCHVPTLTNFPSGEWICTFCRDLSKPEVEYDCDAPSHNSEKKKTEGLVKLTPIDKRKCERLLLFLYCHEMSLAFQDPVPLTVPDYYKIIKNPMDLSTIKKRLQEDYSMYSKPEDFVADFRLIFQNCAEFNEPDSEVANAGIKLENYFEELLKNLYPEKRFPKPEFRNESEDNKFSDDSDDDFVQPRKKRLKSIEERQLLK”, the “soluble on expression in E. coli” value is “soluble”.

“SAQDVDECSLGANPCEHAGKCINTLGSFECQCLQGYTGPRCEIDVNECVSNPCQNDATCLDQIGEFQCICMPGYEGVHCEVNTDECASSPCLHNGRCLDKINEFQCECPTGFTGHLCQVDLHHILDAQKMVWNHR”: the “soluble on expression in E. coli” value was “soluble”.

In the case of “GADEEESTPCDNVETDQQTFACAAFNKQVAERELQSAYDELIERMRDQFGDEAGLMSRIEAAEKVWSQLRDADCKVETHAEQPGSNAYQIAWNSCIAQRSDERAEYLRSLGSQNSDEPAPED”, the “soluble on expression in E. coli” value is recorded as “soluble”.

In the case of “MKIFVVGAHGQIGQLLVHRLLDRGDTVTGGYRDPIAQTPDPEKNFRAVELDLSWPVDRLADLYAGHDAIVFAAGSRGQDLLGVDLDGAVKTMKAAERADISRFIMLSALDAEDPDKWPDQLHDYYIVKYYADEWLIHNTDLDYVIVQPTALTNDPAQGSITLQPQRPSSIPRADVADVLVAALDSNRHRDTVKIASGNEAIVKALHVLEHHHHHH”, the “soluble on expression in E. coli” value is “not soluble”.

Consider “MGSDKIHHHHHHMSLTDGPYAGPPQPDVVDPSGGANQTRVRAYNERLVMSLVRRHGSLSKAEIARRSGLSAQTASVIMRSLEADGLLVRGAPVRGRVGQPSIPMRLNPDAVYSFGVKIGRRSADLVLMDFLGTIRLHLHQIHTYPLPEEIVSFIVGGIGKLEGQLGPGERGRIAGVGIATPFELWNWSEEVGAPREEMDRWRDFDLQAAVASRIRHPVFLQNDGTSACGAELAFGVGASYPDFVYFYIGSFIGGGVVINSALFSGRTGTAGAVGPLPVAGKDGKSTQLLKIASVFVLEKLLRERGIDPEPLWYSADDWIDFGEPLEIWIQDAAAALAQAVVSAVSVVDFSAAVIDGGFPPWVRARLLAATRKALQTLDLQGVTVPDLVEGTVGSHARAIGGASLPLFSRYLLDTNVLFKEL”, for which the “soluble on expression in E. coli” value is “not soluble”.

For the sequence “MTALITQFWQQVETALKTANPQEKCRLVNDLYDNLLPQIQLIKLEDFPEIVPQDNIAAFPEKPLLVAPKDVPKRSFATEEGYAATLHAIAHIEFNAINLGLDAAWRFGRNAQEELGEGLAFVKDWLRVAREESTHFSLVNEHLKTLGYQYGDFEAHAGLWEMAQATAHDIWERMALVPRVLEARGLDATPVLQEKIAQRKDFAAVNILDIILRDEIGHVYIGNHWYHALSKKRGLDAMKCFTELLHKYRIVIFKGVINTDARIQAGFTQHELDWIYEVEQTLKSYIKKLEHHHHHH”, the “soluble on expression in E. coli” value was “soluble”.

Consider “AIAREWKSQDAWKQHSLRLCFGVWPGTEFLHRPRAVHRRSGVVCSQMQTEDSHPETPQVPKESLQEEKDSSPATDASFIQSQDGKTVFLDRRTERRIQRGFVLTERGPRSIWKPAGTSSQRNERVPRRAAARGGAGPPDTTPQLATVRVLVLGANHVAQRLAELLSSHSRVCGCYFVSETTDEAAIESMKKYAYALPLRSALNDDEVVRVAEWVLADYVFLVPTGETHDDGVSLKDKERLERTLAQNRVTFMDENLTGLLLENPSLIDALFRARDSLEA”, for which the “soluble on expression in E. coli” value was “soluble”.

Regarding “MGSDKIHHHHHHMRPVYIATAYLGPIQQYCKMLQYPEVRIETAENYVKQTYRNRCVIAAANGPLSLSIPIVKPDTLKCQTKDIRISDHGNWRHLHWNALVSAYNMSPFFEYYADDLAPFYEKKYEFLLDFNEELRRLVCDLLDMQPAVVYTEHYEPEVANDFRETIRPKHEGEDPAFRPEPYYQVFREKFGFLPNLSIADLLFNMGPEGLVTLRASITGSL”, the “soluble on expression in E. coli” value is listed as “not soluble”.

Consider “MGSDKIHHHHHHMANIYPKRAIYCACAKTRKQRRSSYMSNERYNLRGVSASKEDVHAAIKNVDKGIFPQAFCKIIPDILGGDPDYCNIMHADGAGTKSSLAYVYWRETGDLSVWKGIAQDALIMNIDDLLCVGAVDNILVSSTIGRNKRLIPGEVVSAIINGTEELLADLRRMGVNAYATGGETADVGDLVRTIIVDSTVTCRMKRSDVIDNARIKAGDVIVGLASFGQASYEEQYNGGMGSNGLTSARHDVFAHYLAEKYPESFDPSVPDDLVYSGSMKLTDAIAGLGLDAGKLVLSPTRTYAPVVKAILDEMSRRIHGMVHCSGGAQTKVMHFVKNKRVVKDNFFPTPPLFELIQRESLTEWSEMYKVFNMGHRLEVYLSEENASHVIEISESFGIPARIVGRVEEAPTNELILQTPYGEIRY”, for which the “soluble on expression in E. coli” value was “not soluble”.

Consider “MSGFRKDELIPVIIDIHGEKRKMFEDIADTVLRRVLDEEENECPPIESRGSSTSSFSTTPSSSASPLSINQLLSSSFSQPPAPQLPVPLAFNPFQLALYQSLVANNTLAFPVFGGPPSIFPLLVPPPQPQPTVESIELLKILQNMLAKQKK”, for which the “soluble on expression in E. coli” value is “not soluble”.

Regarding “SGRPVAELLRKIHTSKALLDMLKRLGKEPLNPGALLSQLKQAVFAVQQSSPLIQEGIKYLEEHLHEVHFGEKVVCHCDVNHNNWLLSEDNQLYLIDWDGAMIADPAMDLGPLLYHYVEKPAWESWLSMYGIELTESLRLRMAWYVLSETITFIAWHKAKGNDKE”, the “soluble on expression in E. coli” value was “not soluble”.

Consider “KSEKRMKLTLKGGAAVDPDSGLEHSAHVLEKGGKVFSATLGLVDIVKGTNSYYKLQLLEDDKENRYWIFRSWGRVGTVIGSNKLEQMPSKEDAIEHFMKLYEEKTGNAWHSKNFTKYPKKFYPLEI”, for which the “soluble on expression in E. coli” value is recorded as “soluble”.

For the sequence “MGSDKIHHHHHHMSLSNMQVFNDYIMPATIKSLDQMIDKFNAGSAGAIVLSSEGMTGDFMRESFFASLAAAQRRVNRKGANGAASATDLSELTGSKVKIAGGFGPVRYEPSQMTWLQRPTQQGVLAASTAFAELLLQDQLNTAIAALVAALSNNAAVTNDVSGSAGMTYGAINSAHAKFGDASGQIVANVMTGTVAHKLIGDNLTNGQRLFTAGNVNVIDILGKAVIVTDAPALYEAGTPNKSKVLGLVPGAATVGNTSDIITNVETTNGKERIETTFQADYSFSLGLKGYGWDEANGGASPTDAEIATGTNWDKVAEFDKMTAGVIAVADADQ”, the “soluble on expression in E. coli” value is “not soluble”.

As for “MMSASSPYPIGTPGQPWQASERQAWREQRHIQREYQQEVVPKILALNSLFDVSTYGALSYDPTRYPLYVVKSRHWNANKPTVLITGGVHGYETSGVHGALQFLATAAEPYLAHFNLLAAPCVSPWGYETINRWNPNAIDPNRSFVQDSPAEEAALLMAMVAEHGPILLHIDLHETTDTDESEFRPALAARDGKAYLEGSIPDGFYTVGDTENPQLAFQQAVIDSVRRVTHIAPADENHEIIGSPVVAEGVILYPMRELGLCGGMTDCTYSTTTEVYPDSPKVTAQLCNDAQVAAIIGALDYVLANEQSLLGE”, the “soluble on expression in E. coli” value is “not soluble”.

The record behind these values is the DeepSol protein solubility set.
